Results reported in patent US20120094899A1 (Takeda / Millennium, published 2012).
Non-standard residues stand in square brackets, D forms with d. No end group written: not given here. *: point of attachment. Acetyl(2-(piperazin-1-yl)) = O=C(CN1CCNCC1)*; PEG 20 kDa = methoxypolyethylene glycol 20k; 2Nal = N[C@@H](Cc1ccc2ccccc2c1)C(=O)O; Arg(Me) = CNC(=N)NCCC[C@H](N)C(=O)O; NMeY = CN[C@@H](Cc1ccc(O)cc1)C(=O)O; NMeR = CN[C@@H](CCCNC(=N)N)C(=O)O; Cha = N[C@@H](CC1CCCCC1)C(=O)O; NMeL = CN[C@@H](CC(C)C)C(=O)O; NMeA = CN[C@@H](C)C(=O)O; βAla = NCCC(=O)O

T1: Human FM3 (human), Q9HB89
T1 chain: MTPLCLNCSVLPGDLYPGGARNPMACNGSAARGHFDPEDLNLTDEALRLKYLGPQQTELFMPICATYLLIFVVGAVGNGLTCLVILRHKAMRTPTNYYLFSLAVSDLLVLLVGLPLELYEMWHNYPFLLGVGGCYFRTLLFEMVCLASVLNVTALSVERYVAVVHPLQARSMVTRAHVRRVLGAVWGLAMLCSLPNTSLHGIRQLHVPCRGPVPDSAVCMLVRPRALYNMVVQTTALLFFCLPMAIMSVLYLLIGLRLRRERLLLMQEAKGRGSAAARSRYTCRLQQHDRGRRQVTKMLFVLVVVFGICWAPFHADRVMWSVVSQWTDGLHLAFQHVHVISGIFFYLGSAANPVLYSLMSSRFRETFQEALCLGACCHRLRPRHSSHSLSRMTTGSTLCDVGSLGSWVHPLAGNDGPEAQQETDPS

T2: Human FM3 (human, UniProt Q9HB89 1-426)
T2 construct: whole, on cells; Assayed as the membrane fraction of FM3-expressing CHO cells (1.2 mg/mL protein); also called NMUR1; FM3 receptor
T2 sequence (looked up): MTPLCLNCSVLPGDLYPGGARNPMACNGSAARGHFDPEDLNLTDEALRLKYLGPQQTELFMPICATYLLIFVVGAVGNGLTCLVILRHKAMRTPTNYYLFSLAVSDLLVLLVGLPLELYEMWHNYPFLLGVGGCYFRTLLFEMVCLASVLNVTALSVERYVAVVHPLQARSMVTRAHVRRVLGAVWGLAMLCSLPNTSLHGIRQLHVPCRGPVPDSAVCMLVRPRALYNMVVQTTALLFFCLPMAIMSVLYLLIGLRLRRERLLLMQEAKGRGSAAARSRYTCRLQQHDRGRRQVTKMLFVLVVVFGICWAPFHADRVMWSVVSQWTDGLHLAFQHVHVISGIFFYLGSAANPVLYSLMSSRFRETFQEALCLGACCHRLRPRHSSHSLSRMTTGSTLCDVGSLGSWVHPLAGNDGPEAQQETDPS


How the values were obtained:
human TGR1 = molecular target: T3, human TGR1 (human, UniProt Q9GZQ4 1-415); experiment: displacement of 125I-NMU8 from human TGR1 CHO membrane fraction; IC50 relative to NMU-8;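 further: competitive binding on TGR1-expressing CHO cell membranes, with compounds tested as DMSO dilution series and incubated for 70 min at 25 °C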
T3 construct: whole, on cells; Assayed as the membrane fraction of TGR1-expressing CHO cells (1.1 mg/mL protein); also called NMUR2; TGR1 receptor
T3 sequence (Q9GZQ4 whole entry): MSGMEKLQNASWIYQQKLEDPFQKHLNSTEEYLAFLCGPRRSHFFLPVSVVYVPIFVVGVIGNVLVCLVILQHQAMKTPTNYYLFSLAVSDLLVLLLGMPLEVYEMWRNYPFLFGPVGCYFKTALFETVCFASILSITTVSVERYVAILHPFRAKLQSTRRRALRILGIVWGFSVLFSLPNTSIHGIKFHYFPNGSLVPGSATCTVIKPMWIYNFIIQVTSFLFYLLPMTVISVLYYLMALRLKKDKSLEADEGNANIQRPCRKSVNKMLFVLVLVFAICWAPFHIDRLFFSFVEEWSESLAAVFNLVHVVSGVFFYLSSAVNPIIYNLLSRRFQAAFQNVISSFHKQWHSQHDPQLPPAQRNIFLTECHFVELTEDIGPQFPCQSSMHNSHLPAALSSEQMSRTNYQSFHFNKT
Method: (§1) 15 mL of homogenized buffer (10 mM NaHCO₃ (pH 7.4), 5 mM EDTA, protease inhibitor=0.5 mM PMSF, 10 μg/mL Pepstatin A, 20 μg/mL Leupeptin, and 4 μg/mL E-64) was added to the obtained cell pellets, the cellular membrane was disrupted using a polytron homogenizer (Kinematica GmbH), centrifugation was conducted for 10 minutes at 1,000 g at 4° C., and the supernatant was collected. This process was further repeated twice, and ultracentrifugation was conducted for 60 minutes at 30,000 rpm at 4° C. Thereafter, 8 mL of homogenized buffer was added to the pellets and suspended homogeneously to prepare a membrane fraction. The protein concentration of the FM3-expressing CHO cellular membrane fraction was 1.2 mg/mL, and the protein concentration of the TGR1-expressing CHO cellular membrane fraction was 1.1 mg/mL.
(§2) Specifically, each of the NMU derivatives and PEG conjugates was dissolved in DMSO so as to prepare 2 μL of each dilution series of the NMU derivatives and PEG conjugates. […] The resulting product was thoroughly mixed, and then a reaction was carried out at 25° C. for 70 minutes.

[1] = molecular target: T1, Human FM3 (human), Q9HB89; experiment: displacement of 125I-NMU8 from human FM3 CHO membrane fraction; IC50 relative to NMU-8; conditions: remark: other sources report otherwise
Human FM3 = molecular target: T2, Human FM3; experiment: as above
Method: as §1, §2

Row | Binder | IC50 ratio (human TGR1) | IC50 ratio (ratio to NMU-8 (=1)) [1] | IC50 ratio (Human FM3)
1 | {Acetyl(2-(piperazin-1-yl))}-FWLFRARN-NH2 (SMILES CC(C)C[C@H](NC(=O)[C@H](Cc1c[nH]c2ccccc12)NC(=O)[C@H](Cc1ccccc1)NC(=O)CN1CCNCC1)C(=O)N[C@@H](Cc1ccccc1)C(=O)N[C@@H](CCCNC(=N)N)C(=O)N[C@@H](C)C(=O)N[C@@H](CCCNC(=N)N)C(=O)N[C@@H](CC(N)=O)C(N)=O, also called 2-(piperazin-1-yl)acetyl-[Phe1,Trp2,Ala6]-NMU-8) [NpipAc0,Phe1,Trp2,Ala6-NMU-8 (Compound 11)] | 0.19 ratio to NMU-8 (=1) | 280 | 
2 | {PEG 20 kDa-Acetyl(2-(piperazin-1-yl))}-FWLFRARN-NH2 (also called PEG20k-NPipAc-Phe1, Trp2,Ala6-NMU-8) [PEG20k-NpipAc0,Phe1,Trp2,Ala6-NMU-8 (Compound K)] | 34 ratio to NMU-8 (=1) | 11000 | 
3 | [βAla]PFLFRPRN-NH2 (N-terminus assumed; SMILES CC(C)C[C@H](NC(=O)[C@H](Cc1ccccc1)NC(=O)[C@@H]1CCCN1C(=O)CCN)C(=O)N[C@@H](Cc1ccccc1)C(=O)N[C@@H](CCCNC(=N)N)C(=O)N1CCC[C@H]1C(=O)N[C@@H](CCCNC(=N)N)C(=O)N[C@@H](CC(N)=O)C(N)=O) [β-Ala0,Pro1-NMU-8 (Compound 8)] | 3.8 ratio to NMU-8 (=1) |  | 0.59 ratio to NMU-8 (=1)
4 | [βAla]YYLFRPRN-NH2 (N-terminus assumed; SMILES CC(C)C[C@H](NC(=O)[C@H](Cc1ccc(O)cc1)NC(=O)[C@H](Cc1ccc(O)cc1)NC(=O)CCN)C(=O)N[C@@H](Cc1ccccc1)C(=O)N[C@@H](CCCNC(=N)N)C(=O)N1CCC[C@H]1C(=O)N[C@@H](CCCNC(=N)N)C(=O)N[C@@H](CC(N)=O)C(N)=O, also called β-Ala0,Try2-NMU-8) [β-Ala0,Tyr2-NMU-8 (Compound 5)] | 0.17 ratio to NMU-8 (=1) |  | 0.44 ratio to NMU-8 (=1)
5 | [βAla]YFVFRPRN-NH2 (N-terminus assumed; SMILES CC(C)[C@H](NC(=O)[C@H](Cc1ccccc1)NC(=O)[C@H](Cc1ccc(O)cc1)NC(=O)CCN)C(=O)N[C@@H](Cc1ccccc1)C(=O)N[C@@H](CCCNC(=N)N)C(=O)N1CCC[C@H]1C(=O)N[C@@H](CCCNC(=N)N)C(=O)N[C@@H](CC(N)=O)C(N)=O) [β-Ala0,Val3-NMU-8 (Compound 4)] | 0.37 ratio to NMU-8 (=1) |  | 0.43 ratio to NMU-8 (=1)
6 | [βAla]YF[Cha]FRPRN-NH2 (N-terminus assumed; SMILES N=C(N)NCCC[C@H](NC(=O)[C@@H]1CCCN1C(=O)[C@H](CCCNC(=N)N)NC(=O)[C@H](Cc1ccccc1)NC(=O)[C@H](CC1CCCCC1)NC(=O)[C@H](Cc1ccccc1)NC(=O)[C@H](Cc1ccc(O)cc1)NC(=O)CCN)C(=O)N[C@@H](CC(N)=O)C(N)=O, X stands for Cha) [β-Ala0,Cha3-NMU-8 (Compound 6)] | 9.9 ratio to NMU-8 (=1) |  | 0.55 ratio to NMU-8 (=1)
7 | [βAla]YFLFRP[Arg(Me)]N-NH2 (N-terminus assumed; SMILES CNC(=N)NCCC[C@H](NC(=O)[C@@H]1CCCN1C(=O)[C@H](CCCNC(=N)N)NC(=O)[C@H](Cc1ccccc1)NC(=O)[C@H](CC(C)C)NC(=O)[C@H](Cc1ccccc1)NC(=O)[C@H](Cc1ccc(O)cc1)NC(=O)CCN)C(=O)N[C@@H](CC(N)=O)C(N)=O) [β-Ala0,Arg(Me)7-NMU-8 (Compound 14)] | 3.6 ratio to NMU-8 (=1) |  | 6.3 ratio to NMU-8 (=1)
8 | [βAla]YF[NMeL]FRP[NMeR]N-NH2 (N-terminus assumed; SMILES CC(C)C[C@@H](C(=O)N[C@@H](Cc1ccccc1)C(=O)N[C@@H](CCCNC(=N)N)C(=O)N1CCC[C@H]1C(=O)N(C)[C@@H](CCCNC(=N)N)C(=O)N[C@@H](CC(N)=O)C(N)=O)N(C)C(=O)[C@H](Cc1ccccc1)NC(=O)[C@H](Cc1ccc(O)cc1)NC(=O)CCN) [β-Ala0,NMeLeu3,NMeArg7-NMU-8 (Compound 15)] | 19 ratio to NMU-8 (=1) |  | 8.6 ratio to NMU-8 (=1)
9 | {Acetyl(2-(piperazin-1-yl))}-YWLFRARN-NH2 (SMILES CC(C)C[C@H](NC(=O)[C@H](Cc1c[nH]c2ccccc12)NC(=O)[C@H](Cc1ccc(O)cc1)NC(=O)CN1CCNCC1)C(=O)N[C@@H](Cc1ccccc1)C(=O)N[C@@H](CCCNC(=N)N)C(=O)N[C@@H](C)C(=O)N[C@@H](CCCNC(=N)N)C(=O)N[C@@H](CC(N)=O)C(N)=O, also called 2-(piperazin-1-yl)acetyl-[Trp2,Ala6]-NMU8) [NpipAc0,Trp2,Ala6-NMU-8 (Compound 20)] | 1.9 ratio to NMU-8 (=1) |  | 900 ratio to NMU-8 (=1)
10 | {Acetyl(2-(piperazin-1-yl))}-Y[2Nal]LFR[NMeA]RN-NH2 (SMILES CC(C)C[C@H](NC(=O)[C@H](Cc1ccc2ccccc2c1)NC(=O)[C@H](Cc1ccc(O)cc1)NC(=O)CN1CCNCC1)C(=O)N[C@@H](Cc1ccccc1)C(=O)N[C@@H](CCCNC(=N)N)C(=O)N(C)[C@@H](C)C(=O)N[C@@H](CCCNC(=N)N)C(=O)N[C@@H](CC(N)=O)C(N)=O, X stands for Nal(2); also called 2-(piperazin-1-yl)acetyl-[Nal(2)2,NMeAla6]-NMU8) [NpipAc0,Nal(2)2,NMeAla6-NMU-8 (Compound 22)] | 1.7 ratio to NMU-8 (=1) |  | 99 ratio to NMU-8 (=1)
11 | {mPEG 30 kDa-βAla}-YF[Cha]FRPRN-NH2 (X stands for Cha; also called PEG-NH-β-Ala0,Cha3-NMU-8) [PEG30k-NH-β-Ala0,Cha3-NMU-8 (Compound F)] | 11 ratio to NMU-8 (=1) |  | 1.3 ratio to NMU-8 (=1)
12 | {mPEG 30 kDa-βAla}-YFLF[NMeR]PRN-NH2 [PEG30k-NH-β-Ala0,NMeArg5-NMU-8 (Compound M)] | 29 ratio to NMU-8 (=1) |  | 9 ratio to NMU-8 (=1)
13 | {mPEG 30 kDa-βAla}-YFLFRP[Arg(Me)]N-NH2 [PEG30k-NH-β-Ala0,Arg(Me)7-NMU-8 (Compound N)] | 63 ratio to NMU-8 (=1) |  | 290 ratio to NMU-8 (=1)
14 | {mPEG 20 kDa-βAla}-YF[NMeL]FRP[NMeR]N-NH2 [PEG20k-NH-β-Ala0,NMeLeu3,NMeArg7-NMU-8 (Compound O)] | 170 ratio to NMU-8 (=1) |  | 75 ratio to NMU-8 (=1)
15 | {mPEG 20 kDa-βAla}-[NMeY]F[NMeL]F[NMeR]PRN-NH2 [PEG20k-NH-β-Ala0,NMeTyr1,NMeLeu3,NMeArg5-NMU-8 (Compound P)] | 240 ratio to NMU-8 (=1) |  | 83 ratio to NMU-8 (=1)
16 | {PEG 20 kDa-βAla}-YWLFR[NMeA]RN-NH2 [PEG20k-NH-β-Ala0,Trp2,NMeAla6-NMU-8 (Compound Q)] | 47 ratio to NMU-8 (=1) |  | 1600 ratio to NMU-8 (=1)
17 | {mPEG 20 kDa-Acetyl(2-(piperazin-1-yl))}-Y[2Nal]LFR[NMeA]RN-NH2 (X stands for Nal(2); also called PEG20k-NpipAc-Nal(2)2,NMeAla6-NMU8) [PEG20k-NpipAc0,Nal(2)2,NMeAla6-NMU-8 (Compound V)] | 27 ratio to NMU-8 (=1) |  | 10000 ratio to NMU-8 (=1)
